Laboratory results published in article doi:10.1101/2020.08.13.249979 (bioRxiv, 2020).
Several values for one entry are separate records, joined by “and”; a condition that tells them apart may be missing. Equal entries are not always repeated.

Columns and labels:
negative stain EM = target: the molecule itself; test: negative stain EM
cryo-EM structure = target: the molecule itself; test: cryo-EM structure
cross-linking = target: the molecule itself; test: cross-linking

B1: Vipp1Δα6_(1-219) (domain or fragment)
chain: MGLFDRIKRVVSSNLNDLVNKAEDPEKMLEQAILEMQEDLVQLRQGVAQAIAAQKRSEKQYNDAQNEINKWQRNAQLALQKGDENLARQALERKKTYTDTSAALKASLDTQSTQVETLKRNLIQLESKISEAKTKKEMLKARITTAKAQEQLQGMVRGMNTSSAMSAFERMEEKVLMQESRAQALGELAGADLETQFAQLEGGSDVDDELAALKAQMLP
binding result (negative stain EM): binds

B2: Vipp1/IM30 from Nostoc punctiforme, full-length (amino acids 1-258) (natural protein)
chain: MGLFDRIKRVVSSNLNDLVNKAEDPEKMLEQAILEMQEDLVQLRQGVAQAIAAQKRSEKQYNDAQNEINKWQRNAQLALQKGDENLARQALERKKTYTDTSAALKASLDTQSTQVETLKRNLIQLESKISEAKTKKEMLKARITTAKAQEQLQGMVRGMNTSSAMSAFERMEEKVLMQESRAQALGELAGADLETQFAQLEGGSDVDDELAALKAQMLPPATPVTQAQLPPQQETTPAKSNEVVDAELDSLRKQLDQL
stoichiometry N (cryo-EM structure): 84 subunits and 55 subunits to 119 subunits (2×)

B3: Vipp1_(L86C/L193C) (natural protein)
chain: MGLFDRIKRVVSSNLNDLVNKAEDPEKMLEQAILEMQEDLVQLRQGVAQAIAAQKRSEKQYNDAQNEINKWQRNAQLALQKGDENCARQALERKKTYTDTSAALKASLDTQSTQVETLKRNLIQLESKISEAKTKKEMLKARITTAKAQEQLQGMVRGMNTSSAMSAFERMEEKVLMQESRAQALGELAGADCETQFAQLEGGSDVDDELAALKAQMLPPATPVTQAQLPPQQETTPAKSNEVVDAELDSLRKQLDQL
binding result (cross-linking): binds
